Results published in paper PMC4754705.

Molecular target: Envy
Test: SEC; gel filtration on a Superdex 200 column; 100 μL of 10 μM purified protein loaded, flow rate 0.5 ml/min, elution monitored by absorbance at 280 nm; self-association (monomer or dimer)

- stoichiometry N: 2
Substance: Envy
